From paper PMC7522082, “A simple procedure for bacterial expression and purification of the fragile X protein family”

Tests used:
[1] = biological target: T1, His6-MBP-FXR1P (Homo sapiens, UniProt P51114-2 1-539); assay: EMSA; 250 nM protein; FA: 20 mM Tris pH 7.5, 75 mM KCl, 5 mM MgCl2, 1 uM BSA, 1 mM DTT, 100 ng/uL tRNA, ~5 nM RNA, RT 1 h; EMSA: 50 mM Tris pH 7.5, 145 mM KCl, 5 mM MgCl2, 1 uM BSA; conditions: protein: recombinant, tags: N-terminal His6-MBP
[2] = biological target: T1, His6-MBP-FXR1P; assay: fluorescence anisotropy; 75 mM K+, 5 mM Mg2+; FA: 20 mM Tris pH 7.5, 75 mM KCl, 5 mM MgCl2, 1 uM BSA, 1 mM DTT, 100 ng/uL tRNA, ~5 nM RNA, RT 1 h; EMSA: 50 mM Tris pH 7.5, 145 mM KCl, 5 mM MgCl2, 1 uM BSA; conditions: protein: recombinant; tags: N-terminal His6-MBP; label: 3' fluorescein; G-quadruplex forming
[3] = biological target: His6-MBP (UniProt P0AEX9 27-392); assay: fluorescence anisotropy; FA: 20 mM Tris pH 7.5, 75 mM KCl, 5 mM MgCl2, 1 uM BSA, 1 mM DTT, 100 ng/uL tRNA, ~5 nM RNA, RT 1 h; EMSA: 50 mM Tris pH 7.5, 145 mM KCl, 5 mM MgCl2, 1 uM BSA

T1 sequence (P51114 other isoform, or with tags, fused parts or gaps): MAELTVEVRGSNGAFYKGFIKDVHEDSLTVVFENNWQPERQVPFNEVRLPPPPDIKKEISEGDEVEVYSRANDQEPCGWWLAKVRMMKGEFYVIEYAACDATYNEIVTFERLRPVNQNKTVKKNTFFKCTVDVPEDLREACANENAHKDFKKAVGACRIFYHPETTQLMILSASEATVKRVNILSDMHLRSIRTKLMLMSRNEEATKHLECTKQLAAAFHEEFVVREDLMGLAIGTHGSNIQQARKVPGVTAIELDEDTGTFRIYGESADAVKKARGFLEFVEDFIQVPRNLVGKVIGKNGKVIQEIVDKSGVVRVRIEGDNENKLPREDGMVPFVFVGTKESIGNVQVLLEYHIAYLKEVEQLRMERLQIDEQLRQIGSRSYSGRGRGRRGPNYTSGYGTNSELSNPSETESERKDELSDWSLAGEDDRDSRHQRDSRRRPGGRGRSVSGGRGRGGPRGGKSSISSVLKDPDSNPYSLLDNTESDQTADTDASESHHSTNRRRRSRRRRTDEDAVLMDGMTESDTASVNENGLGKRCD

B1: CR1 (ssRNA)
RNA: GCUAUCCAGAUUCUGAUU
Q: Does B1 bind ([1]; label: 3' fluorescein, single strand, no predicted G-quadruplex)?
A: Result: no binding

B2: poly-G17U (structured_RNA)
RNA: GGGGGGGGGGGGGGGGGU
Q: For B2, which Kd [2] is on record?
A: The Kd was 11.7 ± 1 nM.

Q: Does B2 bind [3]?
A: Result: no binding

B3: ΔKC2 (structured_RNA)
RNA: GGGCGAAUUCGGGAUUCCGACCAGAAGGGGCUAAGGAAUGGUGGGACGAGCUAGCGGCUGGUAUGUGCGUCU
Q: Does B3 bind ([1]; label: 3' fluorescein (FTSC, periodate-oxidized 3' end), loop-loop pseudoknot (kissing complex))?
A: Result: binds
